Experimental data from the supplement of paper PMC9112550, “Optimization of the antimicrobial peptide Bac7 by deep mutational scanning” (BMC Biology, 2022).

tested on: Escherichia coli TOP10; test: shrunken log2 fold change of peptide-encoding DNA abundance (4.5 h post-induction vs induction); higher = less antimicrobial activity (less host growth inhibition); conditions: time post-induction: 4.5 h; library: site-saturation at positions 5, 18, 19, 20
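Also: peptides expressed intracellularly from a pBAD plasmid library in pooled LB shake-flask culture, induced with 0.3% L-arabinose, DNA abundance read by NGS, three biological replicates, DESeq2 with apeglm shrinkage.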

Sequence	shrunken log2 fold change
RRIRMRPPRLPRPRPRPQEFPRP	0.284
RRIRMRPPRLPRPRPRPQFRPRP	-0.235
RRIRMRPPRLPRPRPRPQGDPRP	-0.477
RRIRMRPPRLPRPRPRPQIVPRP	-0.163
RRIRMRPPRLPRPRPRPQNNPRP	-0.13
RRIRMRPPRLPRPRPRPQPYPRP	-0.00544
RRIRMRPPRLPRPRPRPQRSPRP	0.629
RRIRMRPPRLPRPRPRPRAAPRP	3.2
RRIRMRPPRLPRPRPRPRCWPRP	0.666
RRIRMRPPRLPRPRPRPRDMPRP	0.316
RRIRMRPPRLPRPRPRPRDYPRP	-0.164
RRIRMRPPRLPRPRPRPREVPRP	1.8
RRIRMRPPRLPRPRPRPRFIPRP	-0.154
RRIRMRPPRLPRPRPRPRFKPRP	0.498
RRIRMRPPRLPRPRPRPRGVPRP	1.23
RRIRMRPPRLPRPRPRPRHWPRP	0.477
RRIRMRPPRLPRPRPRPRIKPRP	0.0377
RRIRMRPPRLPRPRPRPRMGPRP	1.11
RRIRMRPPRLPRPRPRPRMKPRP	0.447
RRIRMRPPRLPRPRPRPRMPPRP	0.771
RRIRMRPPRLPRPRPRPRPKPRP	1.07
RRIRMRPPRLPRPRPRPRPVPRP	1.17
RRIRMRPPRLPRPRPRPRSFPRP	0.307
RRIRMRPPRLPRPRPRPRTEPRP	0.718
RRIRMRPPRLPRPRPRPRTQPRP	0.97

Sequence	shrunken log2 fold change
RRIRMRPPRLPRPRPRPRVAPRP	0.699
RRIRMRPPRLPRPRPRPRWHPRP	0.378
RRIRMRPPRLPRPRPRPRWNPRP	0.197
RRIRMRPPRLPRPRPRPRYRPRP	0.307
RRIRMRPPRLPRPRPRPSAAPRP	2.7
RRIRMRPPRLPRPRPRPSAHPRP	0.423
RRIRMRPPRLPRPRPRPSAIPRP	0.476
RRIRMRPPRLPRPRPRPSCYPRP	-0.348
RRIRMRPPRLPRPRPRPSERPRP	0.365
RRIRMRPPRLPRPRPRPSHMPRP	-0.146
RRIRMRPPRLPRPRPRPSKDPRP	0.37
RRIRMRPPRLPRPRPRPSKFPRP	-0.0303
RRIRMRPPRLPRPRPRPSKKPRP	-0.0297
RRIRMRPPRLPRPRPRPSKNPRP	0.277
RRIRMRPPRLPRPRPRPSMPPRP	-0.201
RRIRMRPPRLPRPRPRPSNDPRP	0.184
RRIRMRPPRLPRPRPRPSRIPRP	0.0606
RRIRMRPPRLPRPRPRPSSYPRP	0.236
RRIRMRPPRLPRPRPRPSYDPRP	0.26
RRIRMRPPRLPRPRPRPSYIPRP	-0.275
RRIRMRPPRLPRPRPRPTAFPRP	0.206
RRIRMRPPRLPRPRPRPTAGPRP	0.396
RRIRMRPPRLPRPRPRPTAIPRP	0.072
RRIRMRPPRLPRPRPRPTAWPRP	1.4
RRIRMRPPRLPRPRPRPTAYPRP	0.513

Sequence	shrunken log2 fold change
RRIRMRPPRLPRPRPRPTCIPRP	-0.00872
RRIRMRPPRLPRPRPRPTDLPRP	0.225
RRIRMRPPRLPRPRPRPTEEPRP	-0.000967
RRIRMRPPRLPRPRPRPTEFPRP	0.0756
RRIRMRPPRLPRPRPRPTENPRP	0.772
RRIRMRPPRLPRPRPRPTGHPRP	0.63
RRIRMRPPRLPRPRPRPTGPPRP	0.388
RRIRMRPPRLPRPRPRPTHHPRP	0.316
RRIRMRPPRLPRPRPRPTHLPRP	0.396
RRIRMRPPRLPRPRPRPTIWPRP	0.52
RRIRMRPPRLPRPRPRPTIYPRP	0.713
RRIRMRPPRLPRPRPRPTKNPRP	1.35
RRIRMRPPRLPRPRPRPTKTPRP	0.334
RRIRMRPPRLPRPRPRPTNPPRP	0.149
RRIRMRPPRLPRPRPRPTPSPRP	1.18
RRIRMRPPRLPRPRPRPTQNPRP	1.18
RRIRMRPPRLPRPRPRPTQYPRP	0.248
RRIRMRPPRLPRPRPRPTRLPRP	1.19
RRIRMRPPRLPRPRPRPTRRPRP	1.14
RRIRMRPPRLPRPRPRPTSLPRP	0.546
RRIRMRPPRLPRPRPRPTSMPRP	0.0931
RRIRMRPPRLPRPRPRPTSRPRP	0.385
RRIRMRPPRLPRPRPRPTVSPRP	0.0176
RRIRMRPPRLPRPRPRPTVTPRP	0.307
RRIRMRPPRLPRPRPRPTWFPRP	0.448
